From the supplement of paper PMC11246515
± gives the standard deviation of the averaged measurements.

Experiment: total protein half-life in vivo (active degradation + dilution); higher = more stable protein
[1] = E. coli NCM3722 delta-clpP delta-lon delta-hslV, growth: N-lim chemostat, doubling time 6 h
[2] = E. coli NCM3722 delta-clpP, growth: N-lim chemostat, doubling time 6 h
[3] = E. coli NCM3722 delta-hslV, growth: N-lim chemostat, doubling time 6 h
[4] = E. coli NCM3722 delta-lon, growth: N-lim chemostat, doubling time 6 h
[5] = E. coli NCM3722 delta-smpB, growth: N-lim chemostat, doubling time 6 h
[6] = wild type E. coli NCM3722, growth: C-lim chemostat, doubling time 3 h
[7] = wild type E. coli NCM3722, growth: C-lim chemostat, doubling time 12 h
[8] = wild type E. coli NCM3722, growth: N-lim chemostat, doubling time 6 h
[9] = wild type E. coli NCM3722, growth: N-lim chemostat, doubling time 12 h
[10] = wild type E. coli NCM3722, growth: P-lim chemostat, doubling time 6 h
[11] = wild type E. coli NCM3722, growth: P-lim chemostat, doubling time 12 h
[12] = wild type E. coli NCM3722, growth: C-lim chemostat, doubling time 6 h

| Sequence | total protein half-life in vivo [1] | total protein half-life in vivo [2] | total protein half-life in vivo [3] | total protein half-life in vivo [4] | total protein half-life in vivo [5] | total protein half-life in vivo [6] | total protein half-life in vivo [7] | total protein half-life in vivo [8] | total protein half-life in vivo [9] | total protein half-life in vivo [10] | total protein half-life in vivo [11] | total protein half-life in vivo [12] |
| --- | --- | --- | --- | --- | --- | --- | --- | --- | --- | --- | --- | --- |
| MIFSVDKVRADFPVLSREVNGLPLAYLDSAASAQKPSQVIDAEAEFYRHGYAAVHRGIHTLSAQATEKMENVRKRASLFINARSAEELVFVRGTTEGINLVANSWGNSNVRAGDNIIISQMEHHANIVPWQMLCARVGAELRVIPLNPDGTLQLETLPTLFDEKTRLLAITHVSNVLGTENPLAEMITLAHQHGAKVLVDGAQAVMHHPVDVQALDCDFYVFSGHKLYGPTGIGILYVKEALLQEMPPWEGGGSMIATVSLSEGTTWTKAPWRFEAGTPNTGGIIGLGAALEYVSALGLNNIAEYEQNLMHYALSQLESVPDLTLYGPQNRLGVIAFNLGKHHAYDVGSFLDNYGIAVRTGHHCAMPLMAYYNVPAMCRASLAMYNTHEEVDRLVTGLQRIHRLLG | 3.84 ± 0.34 h | 3.43 ± 0.26 h | 3.39 ± 0.22 h | 3.44 ± 0.05 h | 3.41 ± 0.12 h | 3.19 ± 0.48 h | 8.7 ± 0.18 h | 3.38 ± 0.26 h | 5.21 ± 0.034 h | 6.38 ± 0.54 h | 11.3 ± 1.4 h | – |
| MIGRLLRGGFMTAIYAYLYIPIIILIVNSFNSSRFGINWQGFTTKWYSLLMNNDSLLQAAQHSLTMAVFSATFATLIGSLTAVALYRYRFRGKPFVSGMLFVVMMSPDIVMAISLLVLFMLLGIQLGFWSLLFSHITFCLPFVVVTVYSRLKGFDVRMLEAAKDLGASEFTILRKIILPLAMPAVAAGWVLSFTLSMDDVVVSSFVTGPSYEILPLKIYSMVKVGVSPEVNALATILLVLSLVMVIASQLIARDKTKGNTGDVK [P0AFK6] | 5.93 h | 6.54 h | 5.12 h | 5.66 h | 5.65 ± 0.13 h | 3.13 ± 0.76 h | 14 h | 6.23 ± 0.36 h | 13.3 ± 0.85 h | 6.269 ± 0.021 h | 10.5 ± 2.2 h | – |
| MIGSLTARIFAIFWLTLALVLMLVLMLPKLDSRQMTELLDSEQRQGLMIEQHVEAELANDPPNDLMWWRRLFRAIDKWAPPGQRLLLVTTEGRVIGAERSEMQIIRNFIGQADNADHPQKKKYGRVELVGPFSVRDGEDNYQLYLIRPASSSQSDFINLLFDRPLLLLIVTMLVSTPLLLWLAWSLAKPARKLKNAADEVAQGNLRQHPELEAGPQEFLAAGASFNQMVTALERMMTSQQRLLSDISHELRTPLTRLQLGTALLRRRSGESKELERIETEAQRLDSMINDLLVMSRNQQKNALVSETIKANQLWSEVLDNAAFEAEQMGKSLTVNFPPGPWPLYGNPNALESALENIVRNALRYSHTKIEVGFAVDKDGITITVDDDGPGVSPEDREQIFRPFYRTDEARDRESGGTGLGLAIVETAIQQHRGWVKAEDSPLGGLRLVIWLPLYKRS [P0AE82] | 6.5 ± 0.57 h | 6.88 ± 0.076 h | – | 5.674 ± 0.024 h | 5.86 ± 0.35 h | 2.971 ± 0.0099 h | 9.91 ± 1.8 h | 6.07 ± 0.074 h | 12.8 ± 0.79 h | 5.98 ± 0.15 h | 11.8 ± 0.38 h | 5.92 ± 0.31 h |
| MIHAFIKKGCFQDSVSLMIISRKLSESENVDDVSVMMGTPANKALLDTTGFWHDDFNNATPNDICVAIRSEAADAGIAQAIMQQLEEALKQLAQGSGSSQALTQVRRWDSACQKLPDANLALISVAGEYAAELANQALDRNLNVMMFSDNVTLEDEIQLKTRAREKGLLVMGPDCGTSMIAGTPLAFANVMPEGNIGVIGASGTGIQELCSQIALAGEGITHAIGLGGRDLSREVGGISALTALEMLSADEKSEVLAFVSKPPAEAVRLKIVNAMKATGKPTVALFLGYTPAVARDENVWFASSLDEAARLACLLSRVTARRNAIAPVSSGFICGLYTGGTLAAEAAGLLAGHLGVEADDTHQHGMMLDADSHQIIDLGDDFYTVGRPHPMIDPTLRNQLIADLGAKPQVRVLLLDVVIGFGATADPAASLVSAWQKACAARLDNQPLYAIATVTGTERDPQCRSQQIATLEDAGIAVVSSLPEATLLAAALIHPLSPAAQQHTPSLLENVAVINIGLRSFALELQSASKPVVHYQWSPVAGGNKKLARLLERLQ | – | – | – | – | – | 2.65 h | – | – | – | – | – | 4.54 h |
| MIHSSVKRWGNSPAVRIPATLMQALNLNIDDEVKIDLVDGKLIIEPVRKEPVFTLAELVNDITPENLHENIDWGEPKDKEVW [P0AE72] | 5.19 ± 0.15 h | 2.31 ± 0.28 h | 2.17 h | 3.17 h | 2.35 h | – | – | 1.94 h | 5.05 ± 2.4 h | 1.3 h | 4.48 h | 5.66 h |
| MIIATAGHVDHGKTTLLQAITGVNADRLPEEKKRGMTIDLGYAYWPQPDGRVPGFIDVPGHEKFLSNMLAGVGGIDHALLVVACDDGVMAQTREHLAILQLTGNPMLTVALTKADRVDEARVDEVERQVKEVLREYGFAEAKLFITAATEGRGMDALREHLLQLPEREHASQHSFRLAIDRAFTVKGAGLVVTGTALSGEVKVGDSLWLTGVNKPMRVRALHAQNQPTETANAGQRIALNIAGDAEKEQINRGDWLLADVPPEPFTRVIVELQTHTPLTQWQPLHIHHAASHVTGRVSLLEDNLAELVFDTPLWLADNDRLVLRDISARNTLAGARVVMLNPPRRGKRKPEYLQWLASLARAQSDADALSVHLERGAVNLADFAWARQLNGEGMRELLQQPGYIQAGYSLLNAPVAARWQRKILDTLATYHEQHRDEPGPGRERLRRMALPMEDEALVLLLIEKMRESGDIHSHHGWLHLPDHKAGFSEEQQAIWQKAEPLFGDEPWWVRDLAKETGTDEQAMRLTLRQAAQQGIITAIVKDRYYRNDRIVEFANMIRDLDQECGSTCAADFRDRLGVGRKLAIQILEYFDRIGFTRRRGNDHLLRDALLFPEK | 6.2 ± 0.45 h | 4.93 ± 0.33 h | 5.22 ± 0.44 h | 5.39 ± 0.23 h | 4.57 ± 0.11 h | 2.77 ± 0.057 h | 9.26 ± 0.52 h | 4.97 ± 0.16 h | 8.6 ± 0.22 h | 4.25 ± 0.27 h | 6.81 ± 0.26 h | 5.56 ± 0.59 h |
| MIIGNIHNLQPWLPQELRQAIEHIKAHVTAETPKGKHDIEGNRLFYLISEDMTEPYEARRAEYHARYLDIQIVLKGQEGMTFSTQPAGAPDTDWLADKDIAFLPEGVDEKTVILNEGDFVVFYPGEVHKPLCAVGAPAQVRKAVVKMLMA [P0AF96] | 4.25 ± 0.25 h | 4.23 ± 2.1 h | 3.43 h | – | 3.75 ± 0.1 h | – | 8.12 ± 0.22 h | 3.18 ± 0.1 h | 5.175 ± 0.0007 h | 4.55 ± 0.89 h | 10.1 ± 0.29 h | – |
